Results on one substance are retold here after article PMC9303359.

The test addresses human Toll-like receptor 2 expressed on HEK-Blue hTLR2 cells (human) (UniProt O60603). Description: flow cytometry on cells.
UniProt O60603, sequence (O60603 21-784): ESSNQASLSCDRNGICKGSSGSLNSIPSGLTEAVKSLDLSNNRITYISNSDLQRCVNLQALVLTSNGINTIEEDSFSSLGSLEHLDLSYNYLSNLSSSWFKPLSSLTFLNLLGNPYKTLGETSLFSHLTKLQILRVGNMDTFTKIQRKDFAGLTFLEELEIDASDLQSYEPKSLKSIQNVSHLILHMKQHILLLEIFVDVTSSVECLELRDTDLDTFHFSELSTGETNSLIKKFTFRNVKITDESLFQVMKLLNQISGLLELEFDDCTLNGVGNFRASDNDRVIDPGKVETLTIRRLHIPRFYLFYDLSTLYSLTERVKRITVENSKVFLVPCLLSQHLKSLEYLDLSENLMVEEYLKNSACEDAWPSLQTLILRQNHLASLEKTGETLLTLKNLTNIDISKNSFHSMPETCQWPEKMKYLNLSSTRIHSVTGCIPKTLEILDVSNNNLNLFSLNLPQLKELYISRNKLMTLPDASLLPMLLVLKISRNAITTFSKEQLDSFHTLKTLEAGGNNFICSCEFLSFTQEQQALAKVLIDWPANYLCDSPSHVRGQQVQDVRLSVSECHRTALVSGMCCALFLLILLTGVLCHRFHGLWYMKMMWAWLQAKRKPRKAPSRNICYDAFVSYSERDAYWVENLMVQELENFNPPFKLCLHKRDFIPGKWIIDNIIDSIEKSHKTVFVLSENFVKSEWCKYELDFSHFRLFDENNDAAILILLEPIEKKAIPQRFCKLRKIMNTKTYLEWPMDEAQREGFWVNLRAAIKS

Turning to “fluorescently labelled recombinant ancillary pilin 1 (rAP1 labelled with Red Mega 485) (natural protein)”, the mean fluorescence intensity came to 1490.
